For orientation: Kd means the free concentration of one partner at which half of the binding sites on the other are occupied at equilibrium, for simple one-to-one binding. Lower therefore signals tighter binding.

These results are taken from US20260070987A1.

For the test, the target named is equine FcRn (large alpha subunit p51) in complex with equine beta-2-microglobulin (equine) (UniProt F6XZ61). In words: SPR (Biacore), pH 6. (Surface plasmon resonance follows binding to a sensor surface in real time, without labels.)
UniProt F6XZ61, sequence (F6XZ61 entry or part of it, one chain of several): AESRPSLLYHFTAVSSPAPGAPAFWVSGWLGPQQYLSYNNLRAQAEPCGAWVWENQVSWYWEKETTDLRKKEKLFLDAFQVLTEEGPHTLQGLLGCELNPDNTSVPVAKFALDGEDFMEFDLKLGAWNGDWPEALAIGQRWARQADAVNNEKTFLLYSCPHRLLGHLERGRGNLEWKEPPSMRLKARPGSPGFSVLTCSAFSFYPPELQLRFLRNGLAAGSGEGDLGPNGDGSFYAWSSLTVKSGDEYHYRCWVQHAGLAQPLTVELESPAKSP

B1: equine IgG7 N434H mutant (antibody, part only; not given: Variable domains, not shown: another chain or arm of the molecule; small tags and cut ends)
constant: ASTTAPKVFPLASHSAATSGSTVALGCLVSSYFPEPVTVSWNSGALTSGVHTFPSVLQSSGLYSLSSMVTVPASSLKSQTYICNVAHPASSTKVDKKIVIKECGGCPTCPECLSVGPSVFIFPPKPKDVLMISRTPTVTCVVVDVGHDFPDVQFNWYVDGVETHTATTEPKQEQNNSTYRVVSILAIQHKDWLSGKEFKCKVNNQALPAPVQKTISKPTGQPREPQVYVLAPHRDELSKNKVSVTCLVKDFYPTDIDIEWKSNGQPEPETKYSTTPAQLDSDGSYFLYSKLTVETNRWQQGTTFTCAVMHEALHHHYTEKSVSKSPGK
Molecule B1 displayed a Kd of 25.3 nM.

B2: equine IgG7 N434R mutant (antibody, part only; not given: Variable domains, not shown: another chain or arm of the molecule)
constant: ASTTAPKVFPLASHSAATSGSTVALGCLVSSYFPEPVTVSWNSGALTSGVHTFPSVLQSSGLYSLSSMVTVPASSLKSQTYICNVAHPASSTKVDKKIVIKECGGCPTCPECLSVGPSVFIFPPKPKDVLMISRTPTVTCVVVDVGHDFPDVQFNWYVDGVETHTATTEPKQEQNNSTYRVVSILAIQHKDWLSGKEFKCKVNNQALPAPVQKTISKPTGQPREPQVYVLAPHRDELSKNKVSVTCLVKDFYPTDIDIEWKSNGQPEPETKYSTTPAQLDSDGSYFLYSKLTVETNRWQQGTTFTCAVMHEALHRHYTEKSVSKSPGK
Molecule B2 yielded a Kd of 273 nM.

B3: equine IgG7 D312C mutant (antibody, part only; not given: variable domains, not shown: another chain or arm of the molecule)
constant: ASTTAPKVFPLASHSAATSGSTVALGCLVSSYFPEPVTVSWNSGALTSGVHTFPSVLQSSGLYSLSSMVTVPASSLKSQTYICNVAHPASSTKVDKKIVIKECGGCPTCPECLSVGPSVFIFPPKPKDVLMISRTPTVTCVVVDVGHDFPDVQFNWYVDGVETHTATTEPKQEQNNSTYRVVSILAIQHKCWLSGKEFKCKVNNQALPAPVQKTISKPTGQPREPQVYVLAPHRDELSKNKVSVTCLVKDFYPTDIDIEWKSNGQPEPETKYSTTPAQLDSDGSYFLYSKLTVETNRWQQGTTFTCAVMHEALHNHYTEKSVSKSPGK
B3: the Kd worked out at 26.5 nM.

B4: equine IgG7 N434P mutant (antibody, part only; not given: Variable domains, not shown: another chain or arm of the molecule)
constant: ASTTAPKVFPLASHSAATSGSTVALGCLVSSYFPEPVTVSWNSGALTSGVHTFPSVLQSSGLYSLSSMVTVPASSLKSQTYICNVAHPASSTKVDKKIVIKECGGCPTCPECLSVGPSVFIFPPKPKDVLMISRTPTVTCVVVDVGHDFPDVQFNWYVDGVETHTATTEPKQEQNNSTYRVVSILAIQHKDWLSGKEFKCKVNNQALPAPVQKTISKPTGQPREPQVYVLAPHRDELSKNKVSVTCLVKDFYPTDIDIEWKSNGQPEPETKYSTTPAQLDSDGSYFLYSKLTVETNRWQQGTTFTCAVMHEALHPHYTEKSVSKSPGK
B4 showed a Kd of 194 nM.

B5: equine IgG7 N434Y mutant (antibody, part only; not given: Variable domains, not shown: another chain or arm of the molecule)
constant: ASTTAPKVFPLASHSAATSGSTVALGCLVSSYFPEPVTVSWNSGALTSGVHTFPSVLQSSGLYSLSSMVTVPASSLKSQTYICNVAHPASSTKVDKKIVIKECGGCPTCPECLSVGPSVFIFPPKPKDVLMISRTPTVTCVVVDVGHDFPDVQFNWYVDGVETHTATTEPKQEQNNSTYRVVSILAIQHKDWLSGKEFKCKVNNQALPAPVQKTISKPTGQPREPQVYVLAPHRDELSKNKVSVTCLVKDFYPTDIDIEWKSNGQPEPETKYSTTPAQLDSDGSYFLYSKLTVETNRWQQGTTFTCAVMHEALHYHYTEKSVSKSPGK
Consider B5, for which the Kd is 3.7 nM. Against the preceding molecule, the Kd is about 52-fold lower.

B6: equine IgG7 N434V mutant (antibody, part only; not given: Variable domains, not shown: another chain or arm of the molecule)
constant: ASTTAPKVFPLASHSAATSGSTVALGCLVSSYFPEPVTVSWNSGALTSGVHTFPSVLQSSGLYSLSSMVTVPASSLKSQTYICNVAHPASSTKVDKKIVIKECGGCPTCPECLSVGPSVFIFPPKPKDVLMISRTPTVTCVVVDVGHDFPDVQFNWYVDGVETHTATTEPKQEQNNSTYRVVSILAIQHKDWLSGKEFKCKVNNQALPAPVQKTISKPTGQPREPQVYVLAPHRDELSKNKVSVTCLVKDFYPTDIDIEWKSNGQPEPETKYSTTPAQLDSDGSYFLYSKLTVETNRWQQGTTFTCAVMHEALHVHYTEKSVSKSPGK
B6 displayed a Kd of 6700 nM.

B7: equine IgG7 N434K mutant (antibody, part only; not given: variable domains, not shown: another chain or arm of the molecule; small tags and cut ends)
constant: ASTTAPKVFPLASHSAATSGSTVALGCLVSSYFPEPVTVSWNSGALTSGVHTFPSVLQSSGLYSLSSMVTVPASSLKSQTYICNVAHPASSTKVDKKIVIKECGGCPTCPECLSVGPSVFIFPPKPKDVLMISRTPTVTCVVVDVGHDFPDVQFNWYVDGVETHTATTEPKQEQNNSTYRVVSILAIQHKDWLSGKEFKCKVNNQALPAPVQKTISKPTGQPREPQVYVLAPHRDELSKNKVSVTCLVKDFYPTDIDIEWKSNGQPEPETKYSTTPAQLDSDGSYFLYSKLTVETNRWQQGTTFTCAVMHEALHKHYTEKSVSKSPGK
For the molecule B7, the Kd came out at 31.7 nM.

B8: equine IgG7 N434W mutant (antibody, part only; not given: variable domains, not shown: another chain or arm of the molecule)
constant: ASTTAPKVFPLASHSAATSGSTVALGCLVSSYFPEPVTVSWNSGALTSGVHTFPSVLQSSGLYSLSSMVTVPASSLKSQTYICNVAHPASSTKVDKKIVIKECGGCPTCPECLSVGPSVFIFPPKPKDVLMISRTPTVTCVVVDVGHDFPDVQFNWYVDGVETHTATTEPKQEQNNSTYRVVSILAIQHKDWLSGKEFKCKVNNQALPAPVQKTISKPTGQPREPQVYVLAPHRDELSKNKVSVTCLVKDFYPTDIDIEWKSNGQPEPETKYSTTPAQLDSDGSYFLYSKLTVETNRWQQGTTFTCAVMHEALHWHYTEKSVSKSPGK
Molecule B8 yielded a Kd of 1.3 nM.

B9: equine IgG7 N434T mutant (antibody, part only; not given: variable domains, not shown: another chain or arm of the molecule)
constant: ASTTAPKVFPLASHSAATSGSTVALGCLVSSYFPEPVTVSWNSGALTSGVHTFPSVLQSSGLYSLSSMVTVPASSLKSQTYICNVAHPASSTKVDKKIVIKECGGCPTCPECLSVGPSVFIFPPKPKDVLMISRTPTVTCVVVDVGHDFPDVQFNWYVDGVETHTATTEPKQEQNNSTYRVVSILAIQHKDWLSGKEFKCKVNNQALPAPVQKTISKPTGQPREPQVYVLAPHRDELSKNKVSVTCLVKDFYPTDIDIEWKSNGQPEPETKYSTTPAQLDSDGSYFLYSKLTVETNRWQQGTTFTCAVMHEALHTHYTEKSVSKSPGK
On to B9, for which the dissociation constant (Kd) stood at 159 nM.

B10: equine IgG7 D312A mutant (antibody, part only; not given: Variable domains, not shown: another chain or arm of the molecule)
constant: ASTTAPKVFPLASHSAATSGSTVALGCLVSSYFPEPVTVSWNSGALTSGVHTFPSVLQSSGLYSLSSMVTVPASSLKSQTYICNVAHPASSTKVDKKIVIKECGGCPTCPECLSVGPSVFIFPPKPKDVLMISRTPTVTCVVVDVGHDFPDVQFNWYVDGVETHTATTEPKQEQNNSTYRVVSILAIQHKAWLSGKEFKCKVNNQALPAPVQKTISKPTGQPREPQVYVLAPHRDELSKNKVSVTCLVKDFYPTDIDIEWKSNGQPEPETKYSTTPAQLDSDGSYFLYSKLTVETNRWQQGTTFTCAVMHEALHNHYTEKSVSKSPGK
In turn, B10 gave a Kd of 17.6 nM.

B11: equine IgG7 N434S mutant (antibody, part only; not given: variable domains, not shown: another chain or arm of the molecule)
constant: ASTTAPKVFPLASHSAATSGSTVALGCLVSSYFPEPVTVSWNSGALTSGVHTFPSVLQSSGLYSLSSMVTVPASSLKSQTYICNVAHPASSTKVDKKIVIKECGGCPTCPECLSVGPSVFIFPPKPKDVLMISRTPTVTCVVVDVGHDFPDVQFNWYVDGVETHTATTEPKQEQNNSTYRVVSILAIQHKDWLSGKEFKCKVNNQALPAPVQKTISKPTGQPREPQVYVLAPHRDELSKNKVSVTCLVKDFYPTDIDIEWKSNGQPEPETKYSTTPAQLDSDGSYFLYSKLTVETNRWQQGTTFTCAVMHEALHSHYTEKSVSKSPGK
Regarding B11, the Kd was found to be 114 nM. Compared with the last molecule, the Kd is about 6.5-fold higher.
